Key:
[1] = DMPC solubility assay, 0.5 mM DMPC (turbidity reduction); type: biochemical; conditions: FIGS. 2A-2D and 3A-3C
Procedure: In this example, peptide stocks were diluted to 200 μM in H2O (a 2× solution) and 50 μL of peptide solution was transferred in triplicate into 96-well plates. A one mM solution of 1,2-dimyristoyl-sn-glycero-3-phosphocholine (DMPC) in H2O was prepared, and using a multichannel pipet, 50 μL DMPC solution was rapidly added to the plate. Peptide and lipid solutions were incubated at room temperature for 15 minutes with a final concentration of 100 μM peptides and 0.5 mM DMPC. After 15 minutes, absorbance was read on a plate reader at 405 nm. […] Data are presented as mean+SD over two runs.
In these experiments, DMPC solubility titration curves were generated. Peptide stocks were diluted to 200 μM in H2O (a 2× solution) and serially diluted in H2O over 4 concentrations, then 50 μL of peptide solutions were distributed in triplicate into 96-well plates. A 1 mM solution of 1,2-dimyristoyl-sn-glycero-3-phosphocholine (DMPC) in H2O was prepared, and using a multichannel pipet, 50 μL DMPC solution was rapidly added to the plate. Peptide and lipid solutions were incubated at room temperature for 15 minutes with final concentrations of 3.16-100 μM peptides and 0.5 mM DMPC. After 15 minutes, absorbance was read on a plate reader at 405 nm. […] Data are presented as mean+SD over two runs. Non-linear regression was used to calculate EC50 values.

ARPE-19 cells = test: ARPE-19 GAG-dependent cholesterol import (with or without heparin); type: cell-based, human; conditions: ARPE-19, 10 μM peptide
Procedure: ARPE-19 cells were seeded on 96-well plates at 25,000 cells per well and grown to confluence. A 2× solution of 500 μM DMPC and 50 μM BODIPY-Cholesterol with or without 100 µg/mL heparin was prepared in serum free DMEM: F12. Peptides were diluted to 20 μM in serum free DMEM: F12 (a 2× solution). Peptides were added to lipid solution in equal parts (60 μL each) and incubated for 1 hour at 37° C. ARPE-19 cells were serum starved in serum free DMEM: F12 for 1 hour at 37° C. Peptide: Lipid complexes (100 μL total volume per well) were transferred to ARPE-19 cells for 2 hours at 37° C. Cells were washed, fixed, and intracellular fluorescence was read on Promega GloMax at 475 nm excitation, 500-550 emission. Fluorescence values were background corrected from no treatment conditions. Data are presented ±SD for 2 runs.

[2] = peptide binding to non-oxidized and oxidized lipids (SPR); conditions: immobilized peptide; RU normalized to DMPC
Procedure: FIGS. 25A-25O show peptide binding activity to non-oxidized and oxidized lipids via SPR for indicated peptides. Peptides were reconstituted to 50 μg/mL in 10 mM acetate buffer, pH 4.5 and immobilized to ˜200 RU on a CM5 chip via amine coupling. Non-oxidized lipids (DMPC & POPC) and oxidized lipids (POVPC & KOdiA-PC) were diluted to 100 µM in HBS-EP running buffer and exposed to the chip for binding (n=3) at a flow rate of […] for 120 seconds. The surface was regenerated with 20% EtOH. T-001 served as a positive control and T-031 served as a negative control on each chip. For each peptide, the RU response for all lipids was normalized to the DMPC RU values.

LDLR = LDLR (Homo sapiens, UniProt P01130); test: lipid-dependent LDLR binding (SPR), single concentration; conditions: 1 μM peptide with or without 25 μM DMPC
LDLR, sequence (P01130 22-860): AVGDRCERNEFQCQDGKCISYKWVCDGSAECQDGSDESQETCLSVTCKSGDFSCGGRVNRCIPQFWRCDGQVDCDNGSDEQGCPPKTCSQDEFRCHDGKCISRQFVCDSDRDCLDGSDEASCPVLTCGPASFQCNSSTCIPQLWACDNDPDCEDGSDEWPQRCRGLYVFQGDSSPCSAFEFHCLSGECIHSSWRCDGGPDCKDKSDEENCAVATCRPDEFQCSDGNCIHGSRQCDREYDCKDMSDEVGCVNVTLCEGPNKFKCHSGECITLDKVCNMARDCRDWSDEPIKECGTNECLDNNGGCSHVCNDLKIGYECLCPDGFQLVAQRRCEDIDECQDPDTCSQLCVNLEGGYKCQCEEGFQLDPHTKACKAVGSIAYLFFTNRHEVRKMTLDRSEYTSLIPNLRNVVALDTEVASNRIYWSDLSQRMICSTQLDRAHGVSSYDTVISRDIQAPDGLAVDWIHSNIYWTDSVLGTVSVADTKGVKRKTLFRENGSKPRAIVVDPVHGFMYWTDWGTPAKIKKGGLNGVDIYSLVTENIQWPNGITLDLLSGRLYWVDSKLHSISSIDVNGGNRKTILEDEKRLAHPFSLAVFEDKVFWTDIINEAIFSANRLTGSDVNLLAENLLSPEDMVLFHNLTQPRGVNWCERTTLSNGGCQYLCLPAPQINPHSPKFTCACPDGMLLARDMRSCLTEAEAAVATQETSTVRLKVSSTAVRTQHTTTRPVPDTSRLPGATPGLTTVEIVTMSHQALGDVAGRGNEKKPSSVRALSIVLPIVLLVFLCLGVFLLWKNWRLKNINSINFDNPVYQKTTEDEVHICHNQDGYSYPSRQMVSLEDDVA
Procedure: Peptides were diluted in 1×HBS-N buffer with 1 mM CaCl2 to a final concentration of 1 μM and incubated with or without 25 μM DMPC for 1 hour at RT to form lipid complexes. Each peptide was tested in duplicate. LDLR was diluted to 10 μg/mL in 10 mM acetate buffer pH 4.5 and was immobilized (˜400RU) on a CM5 chip via amine coupling utilizing 1×HBS-P+ buffer with 1 mM CaCl2. Test peptides (with or without DMPC) were exposed to immobilized LDLR at a flow rate of […] for 120 seconds in HBS-N with 1 mM CaCl2. Between cycles the surface was regenerated with 3, 30 second injections of 10 mM NaOH and 100 mM EDTA. Data are plotted as max RU values, averaged from three separate runs.

B1: T-013: therapeutic peptide (peptide)
chain: TRARLSKELQAAQARLGADMEDVRGRLVQYRGEVQAMLGQSTEELRVRLASHLRKLRKRLLRDADDLQKRLAVYQA
DMPC solubilizing activity [1]: significant activity | GAG dependence of cholesterol import (ARPE-19 cells): rely on GAG binding for cholesterol import activity | binding to oxidized lipids relative to DMPC [2]: binding to at least one oxidized lipid that was equivalent or improved to binding against DMPC | lipid-dependent LDLR binding (RU with lipid vs peptide alone) (LDLR): lipid-dependent LDLR binding activity

Source: US20260115250A1, “METHODS OF TREATING AGE-RELATED MACULAR DEGENERATION” (Character Biosciences, Inc., priority 2022, published 2026)
